These results are taken from paper PMC8282039.

Broadly, the Kd is the equilibrium constant for the complex coming apart. The low end stands for tighter binding, the high end for weaker binding.

For this assay, the target named is CDY14HL-Fc4 (human) (UniProt Q9BYF1). The assay can be described thus: SPR.

The substance “SARS-CoV-2 receptor binding domain (RBD), Wuhan (from UniProt P0DTC2 330-530) (domain or fragment)” registered a Kd of 0.031 nM.
